For one assay, the system named is GFP-14-3-3β. The assay can be described thus: GFP-14-3-3β co-IP with LC-MS/MS, untreated GFP-14-3-3β versus GFP control (14-3-3 interactome). It is filed as binding, human. The note with it: pairwise comparison untreated vs GFP.
Assay [1] relates to GFP-14-3-3β and its binding proteins. The assay can be described thus: GFP-14-3-3β co-IP with LC-MS/MS label-free quantification, untreated versus PP1c-treated. On the set-up: species or system human. The note with it: pairwise comparison PP1 vs untreated.

This is an account of results in article PMC7367873, “Dissecting the sequence determinants for dephosphorylation by the catalytic subunits of phosphatases PP1 and PP2A” (Nature Communications, 2020).

B1: RBM14 (protein, UniProt Q96PK6 1-669, looked up)
RNA-binding protein 14: MKIFVGNVDGADTTPEELAALFAPYGTVMSCAVMKQFAFVHMRENAGALRAIEALHGHELRPGRALVVEMSRPRPLNTWKIFVGNVSAACTSQELRSLFERRGRVIECDVVKDYAFVHMEKEADAKAAIAQLNGKEVKGKRINVELSTKGQKKGPGLAVQSGDKTKKPGAGDTAFPGTGGFSATFDYQQAFGNSTGGFDGQARQPTPPFFGRDRSPLRRSPPRASYVAPLTAQPATYRAQPSVSLGAAYRAQPSASLGVGYRTQPMTAQAASYRAQPSVSLGAPYRGQLASPSSQSAAASSLGPYGGAQPSASALSSYGGQAAAASSLNSYGAQGSSLASYGNQPSSYGAQAASSYGVRAAASSYNTQGAASSLGSYGAQAASYGAQSAASSLAYGAQAASYNAQPSASYNAQSAPYAAQQAASYSSQPAAYVAQPATAAAYASQPAAYAAQATTPMAGSYGAQPVVQTQLNSYGAQASMGLSGSYGAQSAAAATGSYGAAAAYGAQPSATLAAPYRTQSSASLAASYAAQQHPQAAASYRGQPGNAYDGAGQPSAAYLSMSQGAVANANSTPPPYERTRLSPPRASYDDPYKKAVAMSKRYGSDRRLAELSDYRRLSESQLSFRRSPTKSSLDYRRLPDAHSDYARYSGSYNDYLRAAQMHSGYQRRM
As to B1, the “Difference (log2), untreated vs GFP” value in the assay on GFP-14-3-3β is 0.5797 log2. Also, in assay [1], the “Difference (log2), PP1 vs untreated” value is -0.1292 log2.

B2: MARS (protein, UniProt P56192 1-900, looked up)
Methionine--tRNA ligase, …: MRLFVSDGVPGCLPVLAAAGRARGRAEVLISTVGPEDCVVPFLTRPKVPVLQLDSGNYLFSTSAICRYFFLLSGWEQDDLTNQWLEWEATELQPALSAALYYLVVQGKKGEDVLGSVRRALTHIDHSLSRQNCPFLAGETESLADIVLWGALYPLLQDPAYLPEELSALHSWFQTLSTQEPCQRAAETVLKQQGVLALRPYLQKQPQPSPAEGRAVTNEPEEEELATLSEEEIAMAVTAWEKGLESLPPLRPQQNPVLPVAGERNVLITSALPYVNNVPHLGNIIGCVLSADVFARYSRLRQWNTLYLCGTDEYGTATETKALEEGLTPQEICDKYHIIHADIYRWFNISFDIFGRTTTPQQTKITQDIFQQLLKRGFVLQDTVEQLRCEHCARFLADRFVEGVCPFCGYEEARGDQCDKCGKLINAVELKKPQCKVCRSCPVVQSSQHLFLDLPKLEKRLEEWLGRTLPGSDWTPNAQFITRSWLRDGLKPRCITRDLKWGTPVPLEGFEDKVFYVWFDATIGYLSITANYTDQWERWWKNPEQVDLYQFMAKDNVPFHSLVFPCSALGAEDNYTLVSHLIATEYLNYEDGKFSKSRGVGVFGDMAQDTGIPADIWRFYLLYIRPEGQDSAFSWTDLLLKNNSELLNNLGNFINRAGMFVSKFFGGYVPEMVLTPDDQRLLAHVTLELQHYHQLLEKVRIRDALRSILTISRHGNQYIQVNEPWKRIKGSEADRQRAGTVTGLAVNIAALLSVMLQPYMPTVSATIQAQLQLPPPACSILLTNFLCTLPAGHQIGTVSPLFQKLENDQIESLRQRFGGGQAKTSPKPAVVETVTTAKPQQIQALMDEVTKQGNIVRELKAQKADKNEVAAEVAKLLDLKKQLAVAEGKPPEAPKGKKKK
On to B2, for which the “Difference (log2), untreated vs GFP” value in the assay with GFP-14-3-3β was found to be 0.1917 log2. Besides, in assay [1], the “Difference (log2), PP1 vs untreated” value is recorded as -0.131 log2.
